Assay results taken from patent publication US20040014134.

Biological target: Fusion protein B (variant 2; rsGFP - cleavage site segment with TEV protease cleavage site - DsRed)

B1: TEV protease (protease from the tobacco etch virus) (protein)
chain: GESLFKGPRDYNPISSTICHLTNESDGHTTSLYGIGFGPFIITNKHLFRRNNGTLLVQSLHGVFKVKNTTTLQQHLIDGRDMIIIRMPKDFPPFPQKLKFREPQREERICLVTTNFQTKSMSSMVSDTSCTFPSSDGIFWKHWIQTKDGQCGSPLVSTRDGFIVGIHSASNFTNTNNYFTSVPKNFMELLTNQEAQQWVSGWRLNADSVLWGGHKVFMSKPEEPFQPVKEATQLMNELVYSQ
Question: Which “two-photon cross-correlation amplitude (dual-colour FCS protease cleavage assay)” value does the source give for B1 here?
Answer: The cleavage of the bond and the consequent reduction of the proportion of double fluorescing molecules in the measurement solution cause the decrease of the cross-correlation amplitude.
